Test [1] relates to HEK293T cells expressing α-syn. Description: ion currents in HEK293T cells expressing α-syn. Type of test: cell-based. As to conditions: extracellular application of 500 μM Zn^2+, +80 mv. From the text: FIG. 3K, FIG. 3L and FIG. 3M graphically illustrate data showing representative currents elicited by depolarizing the cells from a holding potential of −50 mv to a series of test potentials ranging from −80 to +80 mv, and corresponding current-voltage relationship (E; means±SE) in transduced cells. Cells expressing α-syn display a significant increase in ion currents. FIG. 3N left panel graphically illustrates representative currents at +80 mv (left panel) before (Cont), during (Zn^2+) and after (Wash) application of 500 μM Zn^2+. FIG. 3N, right panel, graphically illustrates the time course of the change in current density before, during, and after extracellular application of Zn^2+. The arrows correspond to the currents shown in the left panel (Cont, a; Zn^2+, b; and Washout, c). The increased currents in cells expressing α-syn are attenuated by Zn^2+.

Test [2] concerns the target T1, SYN (Homo sapiens, UniProt P37840). Put plainly: cell free SYN aggregation assay with immunoblot. Type of test: biochemical. As to conditions: for blocking SYN aggregation in cell free system, compared with the other peptides and controls: immunoblot. As for the experimental part:
The peptides of the invention were tested in a cell free system with the appropriate controls (smaller and larger peptides, amino acid (aa) substitutions, scrambled sequence). For this purpose recombinant SYN (10 uM) was incubated at 37 and 65 degrees C. for 0, 4, 6, 12 and 24 with the peptides at 0, 1 and 10 uM. Control experiments where performed with beta and gamma-synuclein as well as with a mutant SYN molecule that cannot bind the peptide. The mixture was run in a gel, followed by immunoblot testing with SYN antibodies.
Background: Immunoblotting shows a protein as a band on a membrane.

In test [3] the test system is neuronal cultures overexpressing α-syn. Put plainly: intracellular calcium influx by Fluo-4 and FLIPR assay in neuronal cultures overexpressing α-syn. As to conditions: after 24 hrs at 37° C., compared to vehicle and scrambled peptide controls. Type of test: cell-based. From the text: FIG. 18 illustrates the effects of a peptide blocker of α-syn aggregation of this invention in neuronal calcium levels. FIG. 18A is a micrograph illustration showing that in neuronal cultures overexpressing α-syn there is a significant time dependent increase in intracellular calcium influx as determined by Fluo-4 and the FLIPR assay. […] (arrow) compared to vehicle and scrambled peptide controls. Data from these studies is graphically summarized on the right hand panels.
(In general: A change in cytosolic calcium serves as a functional read-out for many receptors and channels.)

In the next test the target is T2, α-syn (Homo sapiens, UniProt P37840).
T2 construct: from tissue; host or cells: brain (hippocampus) of thy1-α-syn transgenic mice
Description: intraventricular infusion in α-syn transgenic mice. It is filed as in vivo. How it is done:
FIG. 19 illustrates the effects of peptide blocker of α-syn aggregation in vivo in α-syn (α-syn) transgenic mice. FIG. 19A illustrates the experimental design: for these studies the thy1-overexpressing α-syn received intraventricular infusions with osmotic minipumps of control scrambled peptide, or the exemplary peptide of this invention 96-102 KKDQLGK (SEQ ID NO:1) for 6 weeks, at 30 μM peptide, where 200 μl of solution is minipumped into the lateral ventricle of the animal.

Test [4] has as its system neuronal cultures overexpressing α-syn. Description: neuronal viability by LDH assay in neuronal cultures overexpressing α-syn. Type of test: cell-based. From the text: FIG. 17 illustrates the effects of a peptide blocker of α-syn aggregation of this invention in neuronal viability.
The target of test [5] is T1, SYN. Description: α-syn aggregation/accumulation in neuronal cultures overexpressing α-syn (B103 neuronal cell line, lentivirus SYN). It is filed as cell-based. On the set-up: expressed in transfected cells; host or cells: B103 neuronal cell line, lentiviral transduction. The following applies: 24 hrs. As for the experimental part: The B103 neuronal cell line was infected with a lentivirus expressing SYN (wildtype) or GFP (control) and cells expressing SYN were exposed to the peptides at 0, 1 and 10 uM for 24 hrs. Cells were assayed for SYN aggregation by immunoblot, neurite outgrowth and survival. […] The peptide KKDQLGK (SEQ ID NO:1) and control peptides can be injected into the brain of SYN transgenic (tg) mice to test for in vivo effects.

The values that follow come from patent US8450481B2, “Compounds for inhibiting protein aggregation, and methods for making and using them” (The Regents of the University of California, priority 2007, dated 2013).

For `[Zn+2]` [Zn^2+], the “increased ion currents in cells expressing α-syn” value in test [1] is recorded as “attenuated”.
With EKTKEQVTN [amino acids 57-65 of SYN], in the test with SYN [2], the “blocking SYN aggregation in cell free system, compared with the other peptides and controls” value is given as “most effective at blocking SYN aggregation”.
Take “KKDQLGK [amino acids 96-102 of human SYN]”: in the test with SYN [2] (at 37° C. and 65° C.), the “α-syn aggregation, cell free immunoblot assays” value is listed as “reduced aggregation”. Also, the “blocking SYN aggregation in cell free system, compared with the other peptides and controls” value with SYN [2] was “most effective at blocking SYN aggregation”. Moreover, in test [3], the neuronal calcium influx result is listed as “reduced neuronal calcium influx”. Besides, the “levels of monomeric and aggregated α-syn, immunoblot” value in the test with α-syn (infusion, compared to scrambled peptide controls) is given as “significant reduction”. The “neuronal α-syn accumulation in the hippocampus” value with α-syn (intraventricular infusion 6 weeks, 30 μM peptide, compared to scrambled peptide) is “significant reduction in neuronal α-syn accumulation”. The “neuronal viability as assayed by the LDH assay” value in test [4] is listed as “improved neuronal viability”. Also, in the test with SYN [5] (immunoblot, B103 cells expressing SYN), the “blocking SYN aggregation in neuronal cell based system, compared with the other peptides and controls” value was “most effective at blocking SYN aggregation”. The “α-syn accumulation in neuronal cultures overexpressing α-syn” value with SYN [5] (peptide at 1 uM, compared to vehicle) is “reduced accumulation of α-syn dimer”.
